Entries after “also recorded” stand apart in the source; their conditions may differ.
Target: T1, FGFR1c-βKlotho-FGF19 (UniProt P11362+Q99N32)
T1 construct: the ectodomain of murine βKlotho (F53 to L995) was expressed in HEK293 cells; FLAG (C); made in house; host or cells: E. coli (FGFR1c, FGF19); HEK293 (βKlotho ectodomain)
T1 sequence (P11362 142-365): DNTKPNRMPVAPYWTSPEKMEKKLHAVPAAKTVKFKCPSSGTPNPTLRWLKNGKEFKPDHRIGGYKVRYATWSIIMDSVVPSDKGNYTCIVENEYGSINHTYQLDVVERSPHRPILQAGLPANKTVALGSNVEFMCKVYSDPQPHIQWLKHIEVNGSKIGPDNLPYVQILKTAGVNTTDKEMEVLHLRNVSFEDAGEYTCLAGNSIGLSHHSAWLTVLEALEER
T1 sequence (Q99N32 53-995): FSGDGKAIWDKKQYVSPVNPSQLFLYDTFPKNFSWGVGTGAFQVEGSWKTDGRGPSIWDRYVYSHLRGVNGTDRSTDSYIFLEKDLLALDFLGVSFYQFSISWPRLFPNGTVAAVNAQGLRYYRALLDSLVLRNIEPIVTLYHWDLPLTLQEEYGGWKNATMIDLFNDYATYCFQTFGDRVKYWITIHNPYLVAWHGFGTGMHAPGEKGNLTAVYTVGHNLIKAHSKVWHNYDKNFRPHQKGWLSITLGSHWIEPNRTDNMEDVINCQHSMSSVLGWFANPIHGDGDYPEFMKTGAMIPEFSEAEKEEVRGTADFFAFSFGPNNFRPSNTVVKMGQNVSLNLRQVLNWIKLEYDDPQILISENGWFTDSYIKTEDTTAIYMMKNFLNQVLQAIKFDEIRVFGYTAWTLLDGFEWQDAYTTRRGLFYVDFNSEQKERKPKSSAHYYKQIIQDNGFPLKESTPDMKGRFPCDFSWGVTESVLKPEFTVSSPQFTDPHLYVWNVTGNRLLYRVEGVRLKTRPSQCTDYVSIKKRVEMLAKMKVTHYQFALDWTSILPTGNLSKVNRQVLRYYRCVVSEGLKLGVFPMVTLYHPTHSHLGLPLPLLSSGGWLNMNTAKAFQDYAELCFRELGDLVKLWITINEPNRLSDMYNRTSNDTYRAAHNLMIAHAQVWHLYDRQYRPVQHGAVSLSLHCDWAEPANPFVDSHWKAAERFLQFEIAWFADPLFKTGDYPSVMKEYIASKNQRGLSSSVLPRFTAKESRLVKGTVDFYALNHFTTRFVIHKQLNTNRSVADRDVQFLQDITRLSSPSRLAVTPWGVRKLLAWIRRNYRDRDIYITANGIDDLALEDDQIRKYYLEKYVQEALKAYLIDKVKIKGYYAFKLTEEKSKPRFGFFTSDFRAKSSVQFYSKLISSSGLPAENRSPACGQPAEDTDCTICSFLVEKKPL
Experiment: SPR specificity: FGFR1c-βKlotho binding to immobilized FGF19^23-216
Parameters: species or system human FGFR1c, murine βKlotho, human FGF19
Details: 10-fold molar excess over FGFR1c-βKlotho

B1: FGF23^180-251: 72-amino acid C-terminal tail of human FGF23 (S180 to I251), expressed in E. coli (protein, listed as Homo sapiens)
chain: SAEDDSERDPLNVLKPRARMTPAPASCSQELPSAEDNSPMASDPLGVVRGGRVNTHAGGTGPEGCRPFAKFI
  inhibition of FGFR1c-βKlotho binding to immobilized FGF19: did not affect; also recorded: no inhibition

From patent US8889621B2, “Inhibiting binding of FGF23 to the binary FGFR-Klotho complex for the treatment of hypophosphatemia” (New York University, priority 2009, dated 2014)
